# Source: publication doi:10.1101/2025.04.26.650775, “Evolution of a fuzzy ribonucleoprotein complex in viral assembly” (bioRxiv, 2025)
# What was measured:
# [1] = molecular target: SARS-CoV-2 N-protein N:G215C (reduced), full-length (SARS-CoV-2) (UniProt P0DTC9); test: AUC
# [2] = molecular target: SARS-CoV-2 N-protein N:G215C (reduced), full-length (SARS-CoV-2) (UniProt P0DTC9); test: mass photometry
# [3] = molecular target: SARS-CoV-2 N-protein N:G215C* (oxidized), full-length (SARS-CoV-2) (UniProt P0DTC9); test: mass photometry
# [4] = molecular target: SARS-CoV-2 N-protein N:R203K/G204R, full-length (SARS-CoV-2) (UniProt P0DTC9); test: mass photometry
# [5] = molecular target: SARS-CoV-2 N-protein Nο (Omicron set N:P13L/Δ31–33/R203K/G204R), full-length (SARS-CoV-2) (UniProt P0DTC9); test: mass photometry
# [6] = molecular target: the molecule itself; test: dynamic light scattering
molecule,measurement,setting,value
"SARS-CoV-2 N-protein N:G215C (reduced), full-length (from UniProt P0DTC9 1-419) (natural protein)",Kd,[1],1000 nM
same,best-fit effective RNP life-time (with SL7 RNA),[2],231 s
"SARS-CoV-2 N-protein N:G215C* (oxidized), full-length (from UniProt P0DTC9 1-419) (natural protein)",best-fit effective RNP life-time (with SL7 RNA),[3],41.8 s
"SARS-CoV-2 N-protein N:R203K/G204R, full-length (from UniProt P0DTC9 1-419) (natural protein)",best-fit effective RNP life-time (with SL7 RNA),[4],54.6 s
"SARS-CoV-2 N-protein Nο (Omicron set N:P13L/Δ31–33/R203K/G204R), full-length (from UniProt P0DTC9 1-419) (natural protein)",best-fit effective RNP life-time (with SL7 RNA),[5],58.5 s
MAGNCGDAALALLLLDRLNQLESKMSGKGQQQQGQTV [LRS peptide N_(210–246):G214C],binding result,[6],binds
